Assay results from patent US20230133381A1.
Substitutions are numbered along the chain they refer to.

B1: DA8 (antibody, V domains shown)
VH: EVQLVESGGGLVQPGGSLRLSCAASGFTFSSFNMLWVRQAPGKGLEWVAGIGKSDRYTGYGSAVKGRFTISRDDSKSTVYLQMNSLRAEDTAVYYCVRDAGSGCGSGGWTGACIDTWGQGTLVTVSS
VL: DIQMTQSPSSLSASVGDRVTITCSGGDSYAGSYYYGWYQQKPGKAPKTLIYNNNNRPSGVPSRFSGSGSGTDFTLTISSLQPEDFATYYCGSRDSSYVGIFGQGTKVEIK
B2: DA22 (antibody, V domains shown)
VH: B1 VH with G103P
VL: B1 VL with G68T
B3: DA15 (antibody, V domains shown)
VH: B1 VH with D74T, S77N, V79A, V97S
VL: B1 VL with G68R, S96D, Y97G, V98G, I100R
B4: DA17 (antibody, V domains shown)
VH: B1 VH
VL: B1 VL with R56K, P57A, S58K, G68R
B5: DA9 (antibody, V domains shown)
VH: B1 VH with V79L
VL: B1 VL with G68R
B6: DA5 (antibody, V domains shown)
VH: B1 VH with V79A
VL: B1 VL with G68T
B7: DA23 (antibody, V domains shown)
VH: B1 VH with G103P, S106K
VL: B1 VL with G68T
B8: DA18 (antibody, V domains shown)
VH: B1 VH
VL: B1 VL with G68R, S96D, Y97G, V98G, I100R
B9: D0 (antibody, V domains shown)
VH: AVTLDESGGGLQTPGGGLSLVCKGSGFTFSSFNMLWVRQAPGKGLEWVAGIGKSDRYTGYGSAVKGRATISRDDGQSTVRLQLNNLRAEDTGTYYCVKDAGSGCGSGGWTGACIDTWGHGTEVIVSS
VL: LTQPSSVSANLGGTVEITCSGGDSYAGSYYYGWYQQKAPGSAPVTVIYNNNNRPSNIPSRFSGSTSGSTATLTITGVQAEDEAVYFCGSRDSSYVGIFGAGTTLTVL
B10: DA28 (antibody, V domains shown)
VH: B9 VH with V79A
VL: B9 VL
B11: DA29 (antibody, V domains shown)
VH: B9 VH with V79A
VL: B9 VL with V84T
B12: DA30 (antibody, V domains shown)
VH: B9 VH with V79A, R80Y, L83M, N85S
VL: B9 VL with V84T, F86Y
B13: DA26 (antibody, V domains shown)
VH: B9 VH with R80Y, L83M, N85S
VL: B9 VL with V84T, F86Y
B14: DA33 (antibody, V domains shown)
VH: B9 VH with V79A, G92A, T93V
VL: B9 VL with V84T
B15: DA31 (antibody, V domains shown)
VH: B9 VH with V79A, L83M, N85S
VL: B9 VL with V84T

The molecules below were run against human DR5 (human) (assay: TRAIL competitive ELISA: human DR5 coated on the plate (0.1 ug/ml), TRAIL titrated against the binding of control antibody AP, bound AP detected with anti-human Fc-HRP, ABTS, absorbance at 405 nm).

Molecule | IC50 (read off the curve)
TRAIL protein (from UniProt P50591 114-281) (ligand) | 5000 pM

Each molecule was assayed against human DR5 (human) (assay: SPR (BIAcore X100), human DR5 on CM5 chip, IgG injected, 1:1 Langmuir model).

Molecule | Kd | koff | kon
B1 | < 6.25 pM | < 1e-05 s⁻¹ | 1.6e+06 M⁻¹ s⁻¹
B2 | 34.2 pM | 3.19e-05 s⁻¹ | 932000 M⁻¹ s⁻¹
B3 | 1.09 pM | 2.78e-06 s⁻¹ | 2.56e+06 M⁻¹ s⁻¹
B4 | 23.5 pM | 5.97e-05 s⁻¹ | 2.54e+06 M⁻¹ s⁻¹
B5 | 0.071 pM | 4e-07 s⁻¹ | 5.6e+06 M⁻¹ s⁻¹
B6 | < 8.33 pM | < 1e-05 s⁻¹ | 1.2e+06 M⁻¹ s⁻¹
B7 | 40.3 pM | 2.8e-05 s⁻¹ | 696000 M⁻¹ s⁻¹
B8 | 27.7 pM | 3.67e-05 s⁻¹ | 1.33e+06 M⁻¹ s⁻¹
B9 | 15.2 pM | 2.26e-05 s⁻¹ | 1.49e+06 M⁻¹ s⁻¹
B10 | 3.89 pM | 4.52e-06 s⁻¹ | 1.16e+06 M⁻¹ s⁻¹
B11 | 69.8 pM | 8.47e-05 s⁻¹ | 1.21e+06 M⁻¹ s⁻¹
B12 | 77.4 pM | 7.97e-05 s⁻¹ | 1.03e+06 M⁻¹ s⁻¹
B13 | 1.01 pM | 1.1e-06 s⁻¹ | 1.09e+06 M⁻¹ s⁻¹
B14 | 78.8 pM | 9.77e-05 s⁻¹ | 1.24e+06 M⁻¹ s⁻¹
B15 | 70.6 pM | 8.79e-05 s⁻¹ | 1.24e+06 M⁻¹ s⁻¹

Each molecule was assayed against human DR5 (human) (assay: ELISA: human DR5 coated on the plate (10 ng/ml), antibody titrated, anti-human Fc-HRP, TMB, absorbance at 450 nm).

Molecule | EC50 (read off the curve)
B1 | 0.02 µg/mL
B2 | 0.02 µg/mL
B3 | 0.01 µg/mL
B4 | 0.03 µg/mL
B5 | 0.02 µg/mL
B6 | 0.03 µg/mL
B7 | 0.01 µg/mL
B8 | 0.03 µg/mL
B9 | 0.006 µg/mL
B10 | 0.02 µg/mL
B11 | 0.01 µg/mL
B12 | 0.02 µg/mL
B13 | 0.02 µg/mL
B14 | 0.02 µg/mL
B15 | 0.02 µg/mL
